Legend:
Conditions in all cases: protein: recombinant; tags: none left (N-terminal His removed by TEV); chain copies: 3; single strand
SPRTN core (E112Q) [1] = target: T1, SPRTN core (E112Q) (human, UniProt Q9H040 26-240, E112Q); test: ITC; with equimolar M1-Ub4 (linear tetra-ubiquitin; ternary complex); N=0.29 ± 0.01; ITC: 50 mM HEPES pH 7.4, 50 mM NaCl, 0.5 mM TCEP-HCl, 25 °C, one-site model
T1 sequence: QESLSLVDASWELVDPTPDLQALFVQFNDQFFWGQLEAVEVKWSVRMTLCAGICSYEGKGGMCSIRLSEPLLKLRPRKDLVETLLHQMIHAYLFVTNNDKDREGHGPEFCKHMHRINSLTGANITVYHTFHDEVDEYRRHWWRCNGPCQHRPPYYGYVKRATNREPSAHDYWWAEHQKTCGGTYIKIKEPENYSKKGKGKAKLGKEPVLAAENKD

SPRTN core (E112Q) [2] = target: T1, SPRTN core (E112Q); test: ITC; with equimolar monoUb; N=0.36 ± 0.02; ITC: 50 mM HEPES pH 7.4, 50 mM NaCl, 0.5 mM TCEP-HCl, 25 °C, one-site model
SPRTN core (E112Q) [3] = target: T1, SPRTN core (E112Q); test: ITC; no ubiquitin; N=0.36 ± 0.05; ITC: 50 mM HEPES pH 7.4, 50 mM NaCl, 0.5 mM TCEP-HCl, 25 °C, one-site model

ACGCCTGAAGAGTCTGGTGA (ssDNA) [ssDNA (20 nt), Turner-20bp-F]
Kd (SPRTN core (E112Q) [1]): 0.44 ± 0.03 µM | Kd (SPRTN core (E112Q) [2]): 5.15 ± 1.36 µM | Kd (SPRTN core (E112Q) [3]): 4.33 ± 0.98 µM
